Results reported in PMC3900260.
Like-named read-outs stand apart in the source and are kept apart here.

apurinic/apyrimidinic endonuclease 1 (APE1): K6R/K7R
no change: enzymatic_activity (acetylation at K6) | expression_or_secretion (acetylation at K6) | enzymatic_activity (acetylation at K7) | expression_or_secretion (acetylation at K7)
